Molecular target: biotin-labeled SARS-COV-2 RBD domain (SARS-CoV-2, UniProt P0DTC2 319-541)
Test: SPR, Biacore T200, biotin-RBD on SA chip, antibody as analyte

Row | Binder | Kd [nM]
1 | ABU-339 (antibody, V domains shown) VH: EMQLLESGGGLVQPGGSLRLSCAASGFTFFSYALSWVRQAPGKGLEWVSGISGISDSGGNTYYADSVKGRFTISRDNSQNMLYLQMNSLRVEDTAVYYCAKERRPVLRYFDWLPIEAPDYWGPGTLVTVSS VL: AIQLTQSPSSLSASVGDRVTITCRASQGISSSLAWYQQKPGKAPKLLIYSASTLQSGVPSRFSGSGSGTDFTLTITSLQPEDFATYYCQQLNSYPLTFGGGTKVEIK | < 20
2 | ABU-312 (antibody, V domains shown) VH: EVQLLESGGGLVQPGGSLRLSCAASGFTFSTYAMSWVRQAPGKGLEWVSVISGSGGSTYYADSVKGRFTISRDNSKNTLYLQMNSLRAEDTAVYYCAKEYYYDSSGYYYREDAFDIWGQGTMVTVSS VL: DIQMTQSPSAMSASVGDRVTITCRASQGISNYLAWFQQKPGKVPKRLIYAASSLQSGVPSRFSGSGSGTEFTLTISSLQPEDFATYYCLQHNSYPRTFGQGTKVEIK | < 20
3 | ABU-211 (antibody, V domains shown) VH: EAQLVESGGGLVQPGRSLTVSCAVSGFTFDDYAMHWVRQAPGKGLEWVSSISWNSEKIAYADSVKGRFTVSRDNAKNSLYLQMTSLRPEDTALYYCARDKGSGSYYSGAYYYYMDVWGKGTTVTVSS VL: SDALTQPPSVSVAPGKTAAITCGGDNIGSKNVHWYQQKPGQAPLLVVFDDGDRPSGIPERFSGSNSGNTATLTISRVEAGDEADYYCQVWDGGSDDRGYVFGTGTKVTVL | < 20
4 | ABU-298 (antibody, V domains shown) VH: QVQLVQSGAEVKKPGASVKVSCKASGYTFTSYGISWVRQAPGQGLEWMGWISAYNGNTNYAQKLQGRVTMTTDTSTSTAYMELRSLRSDDTAVYYCARDESGSYYGDQAFDIWGQGTMVTVSS VL: not shown | < 20
5 | ABU-289 (antibody, V domains shown) VH: QVQLVQSGAEVKKPGSSVKVSCKASGGTFSSYTISWVRQAPGQGLEWMGRIIPILGIANYAQKFQGRVTITADKSTSTAYMELSSLRSEDTAVYYCARGIVGATPGYFDYWGQGTLVTVSS VL: EIVMTQSPATLSVSPGERATLSCRASQSVSSNLAWYQQKPGQAPRLLIYGASTRATGIPARFSGSGSGTEFTLTISSLQSEDFAVYYCQQYNNWLTFGGGTKVEIK | < 10
6 | ABU-145 (antibody, V domains shown) VH: QVQLQESGPGLVKPSQTLSVTCTVSGGSINRDGHYWIWIRQHPEKGLEWLGYIYSGRNTFYNPSLRSRLSISADTSKSQFSLNLHSVTAADTAVYYCAKMYSDYDDNYYGLDVWGRGTTVTVSS VL: EIVLTQSPGTLSLSPGERATLSCRASHTISSSYLAWYQQKAGQAPRLLIYAASSRATGIPARFSGSGSGTDFTLTISRLEPEDFAVYYCQQFDNSPPWTFGRGTKVEMR | < 10
7 | ABU-328 (antibody, V domains shown) VH: EVQLVESGGGLVQPGGSLRLSCAASGFTVSSNYMSWVRQAPGKGLEWVSVIYSGGSTYYADSVKGRFTISRDNSKNTLYLQMNSLRAEDTAVYYCARLSGTGYGGDGGWFDPWGQGTLVTVSS VL: QSALTQPASVSGSPGQSITISCTGTSSDVGSYNLVSWYQQHPGKAPKLMIYEVSKRPSGVSNRFSGSKSGNTASLTISGLQAEDEADYYCCSYAGSSLWVFGGGTKLTVL | < 10
8 | ABU-325 (antibody, V domains shown) VH: EVQLVESGGGLIQPGGSLRLSCAASGFTVSSNYMSWVRQAPGKGLEWVSVIYSGGSTYYADSVKGRFTISRDNSKNTLYLQMNSLRAEDTAVYYCARDRRVGSPYYYYYMDVWGKGTTVTVSS VL: QTVVTQEPSLTVSPGGTVTLTCASSTGAVTSGYYPNWFQQKPGQAPRALIYSTSNKHSWTPARFSGSLLGGKAALTLSGVQPEDEAEYYCLLYYGGAPVFGGGTKLTVL | < 10
9 | ABU-181 (antibody, V domains shown) VH: QVQLQESGPGLVKPSQTLSLICTVSDDSISSGSYYWSWIRQPAGKGLEWIGRIYAGESTNYNPSLKSRVIISVDTSKKQFSLRLSSVTAADTAVYYCARGAVVTPFGLDSWGQGTLVTVSS VL: SYELTQPPSVSVSPGQTARITCSGDALPKQYAYWYQQKTGQAPVLVIYKDSERPSGIPERVSGSSSGTTVTLTISGVQAEDEADYYCQSADSSGTWVFGGGTKLTVL | < 10
10 | ABU-316 (antibody, V domains shown) VH: QVQLVESGGGVVQPGRSLRLSCAASGFTFSSYGMHWVRQAPGKGLEWVAVISYDGSNKYYVDSVKGRFTISRDNSKNTLYLQMNSLRAEDTAVYYCAKDPYYYGSGSSNFFDYWGQGTLVTVSS VL: SYVLTQPPSVSVAPGKTARITCGGNNIGSKSVHWYQQKPGQAPVLVVYDDNDRPSGIPDRFSGSNSGNTATLTISRVEAGDEADYYCQVWDSSSDHYWVFGGGTKLTVL | < 10
11 | ABU-319 (antibody, V domains shown) VH: QVQLVESGGGVVQPGRSLRLSCAASGFTFSSYGMHWVRQAPGKGLEWVAVIWYDGSNKYYADSVKGRFTISRDNSKNTLYLQMNSLRAEDTAVYYCAKGEGVYGSGSRYFLDYWGQGTLVTVSS VL: not shown | < 10
12 | ABU-305 (antibody, V domains shown) VH: QVQLVQSGAEVKKPGASVKVSCKASGYTFTSYGISWVRQAPGQGLEWMGWISAYNGNTNYAQKLQGRVTMTTDTSTSTAYMELRSLRSDDTAVYYCARDGHSAWGAFDIWGQGTMVTVSS VL: not shown | < 20
13 | ABU-210 (antibody, V domains shown) VH: EVQLVESGGGLVQPGRSLRLSCAASGFTFDDYAMHWVRQAPGKGLEWVSGISWNSGTIGYEDSVKGRFIISRDNAKNSLYLQMNSLRAEDTALYYCAKEPLFGETYGMDVWGQGTTVTVSS VL: QSALTQPASVSGSPGQSITISCTGTSSDVGGYNYVSWYQHHPGKAPKLMIYEVSNRPSGVSNRFSGSKSANTASLTISGLQTEDEADYYCSSYTSISTVLFGGGTKLTVL | < 10
14 | ABU-323 (antibody, V domains shown) VH: EVQLVESGGGLVQPGGSLRLSCAASGFTVSSNYMSWVRQAPGKGLEWVSVIYSGGTTYYADSVKGRFTISRHNSKNTLYLQMNSLRAEDTAVYYCARDWGEYYFDYWGQGTLVTVSS VL: not shown | < 20
15 | ABU-394 (antibody, V domains shown) VH: EVQLVESGGGLIQPGGSLRLSCAASGFTVSSNYMSWVRQAPGKGLEWVSVIYSGGSTYYADSVKGRFTISRDNSKNTLYLQMNSLRAEDTAVYYCARSYGDYYFDYWGQGTLVTVSS VL: DIQLTQSPSSLSASVGDRVTITCRASQGISSYLAWYQQKPGKAPKLLIYAASTLQSGVPSRFSGSGSGTDFTLTISSLQPEDFATYYCQQLNSFGPGTKVDIK | < 20
16 | ABU-393 (antibody, V domains shown) VH: EVQLVESGGGLIQPGGSLRLSCAASGFTVSSNYMSWVRQAPGKGLEWVSVIYSGGSTYYADSVKGRFTISRDNSKNTLYLQMNSLRAEDTAVYYCARDYGDYWFDPWGQGTLVTVSS VL: not shown | < 20
17 | ABU-317 (antibody, V domains shown) VH: QVQLVESGGGVVQPGWSLRLSCAASGFTFSSFAMYWVRQAPGKGLEWVAVISYDGANKYYADSVKGRFTISRDNSKNTLYLQVNSLRVEDTAVYYCARGPDYYDTGGYFDLWGRGTLVTVSS VL: QSVLTQPPSVSAAPGQKVTISCSGSSSNIGNNYVSWYQQLPGTAPKLLIYDNNKRPSGIPDRFSGSKSGTSATLGITGLQTGDEADYYCGTWDSSLSAGVFGGGTKLTVL | < 20
18 | ABU-205 (antibody, V domains shown) VH: QVQLVQSGAEVKKPGSSVKVSCKASGGTFSSYAISWVRQAPGQGLEWMGRIIPIFGTANYAQKFQGRVTITADESTSTAYMELSSLRSEDTAVYYCARAAYYYDSSGYGWFDPWGQGTLVTVSS VL: not shown | < 10
19 | ABU-254 (antibody, V domains shown) VH: QVQLVQSGAEVKKPGSSVKVSCKASGGTFSSYAISWVRQAPGQGLEWMGRIIPIFGTANYAQKFQGRVTITADESTSTAYMELSSLRSEDTAVYYCARAAYYYDSSGYGWFDPWGQGTLVTVSS VL: not shown | < 10
20 | ABU-288 (antibody, V domains shown) VH: QVQLQESGPGLVKPSQTLSLTCTVSGGSISSGLYHWSWIRQPAGKGLEWIGRIFSSGSTAYSPSLKSRVIISADTSKNQFSLKLSSVTAADTAVYYCARDSPLKFDSFGYPLYGMDVWGQGTTVTVSS VL: DIQMTQSPSSLSASVRDKVTITCRASQSISSCLNWYQQKPGKAPKVLIYAASSLQSGVPSRFSGSGSGTDFTLTISSVQPEDFATYYCQQSYSVPHTFGQGTKVEIK | < 1
21 | ABU-320 (antibody, V domains shown) VH: QVQLVESGGGVVQPGRSLRLSCAASGFTFSSYATHWVRQAPGKGLEWVAVISYDGSNKYHADSVKGRFTISRDNSKNTLYLQMNSLRAEDTAVYYCAREWSRGAVAGTGYFDYWGQGTLVTVSS VL: SYVLTQPPSVSVAPGKTARITCGGNNIGSKSVHWYQQKPGQAPVLVVYDDSDRPSGIPERFSGSNSGNTATLTISRVEAGDEADYYCQVWDSSGDHWVFGGGTKLTVL | < 10
22 | ABU-329 (antibody, V domains shown) VH: EVQLVESGGGLVQPGGSLRLSCAASGFTFSSYWMHWVRQAPGKGLVWVSRIKSDGSSTSYADSVKGRFTISRDNAKNTLYLQMNSLRAEDTAVYYCAGKKIYYGSSFDPWGQGTLVTVSS VL: NFMLTQPHSVSESPGKTVTISCTRSSGSIASNYVQWYQQRPGSAPTTVIYEDNQRPSGVPDRFSGSIDSSSNSASLTISGLKTEDEADYYCQSYDSSNQVFGGGTKLTVL | < 10
23 | ABU-330 (antibody, V domains shown) VH: QVQLQESGPGLVKPSQTLSLTCTVSGGSISSGGYYWSWIRQHPGKGLEWIGYIYYSGSTYYNPSLKSRVTISVDTSKNQFSLKLSSVTAADTAVYYCARGGSGSGWYGGRFDYWGQGTLVTVSS VL: EIVLTQSPATLSLSPGERATLSCRASQSVSSYLAWYQQKPGQAPRLLIYDASNRATGIPARFSGSGSGTDFTLTISSLEPEDFAVYYCQQRSNWLFTFGPGTKVDIK | < 10
24 | ABU-337 (antibody, V domains shown) VH: QVQLVESGGGVVQPGRSLRLSCAASGFTFSTSAMHWVRQAPGKGLEWVAGISYDGSNEHLDSVKGRFTISRDNSKNTLYLQMSSLRPEDTAVYYCARCPFWNYGHCYLDNWGQGTLVTVSS VL: EIVLTQSPATLSLSPGERATLSCRASQSVSSYLAWYQQKPGQAPRLLIFDASNRATGIPARFSGSGSGTDFTLTISSLEPEDFAVYYCQQRNKWPGTFGQGTKVEIK | < 20
